# PMC4422259, “Arc is a flexible modular protein capable of reversible self-oligomerization” (Biochemical Journal, 2015)
# B1: recombinant human Arc (activity-regulated cytoskeleton-associated protein), wild type, cleaved from the His-ZZ-hArc fusion protein (natural protein, UniProt Q7LC44 1-396, looked up)
# chain: MELDHRTSGGLHAYPGPRGGQVAKPNVILQIGKCRAEMLEHVRRTHRHLLAEVSKQVERELKGLHRSVGKLESNLDGYVPTSDSQRWKKSIKACLCRCQETIANLERWVKREMHVWREVFYRLERWADRLESTGGKYPVGSESARHTVSVGVGGPESYCHEADGYDYTVSPYAITPPPAAGELPGQEPAEAQQYQPWVPGEDGQPSPGVDTQIFEDPREFLSHLEEYLRQVGGSEEYWLSQIQNHMNGPAKKWWEFKQGSVKNWVEFKKEFLQYSEGTLSREAIQRELDLPQKQGEPLDQFLWRKRDLYQTLYVDADEEEIIQYVVGTLQPKLKRFLRHPLPKTLEQLIQRGMEVQDDLEQAAEPAGPHLPVEDEAETLTPAPNSESVASDRTQPE
# notes: human Arc (activity-regulated cytoskeleton-associated protein); called full-length hArc; Vector pETZZ_1a; also called WT hArc; Arc/Arg3.1; source: E. coli BL21-CodonPlus, auto-induction medium, purified (Ni-NTA, TEV cleavage, second Ni-NTA flow-through); not shown: His, N-terminal, cleaved; ZZ domain, N-terminal, cleaved
# Experiments:
# [1] = biological target: the molecule itself; assay: dynamic light scattering; hArc 22 μM (1 mg/ml) in 10 mM potassium phosphate, pH 7.4, at 36°C
# [2] = biological target: the molecule itself; assay: dynamic light scattering; hArc 22 μM (1 mg/ml) in 10 mM potassium phosphate, pH 7.4, without salt, at 20°C and 90°C
protein,measurement,setting,value
B1,stoichiometry N,[1],> 12 subunits
same,stoichiometry N,[2],≥ 40 subunits
